In patent publication US20240287172A1 (SCIRHOM, published 2024):

Key:
Assay in all cases: FACS on MEF-DKO cells
[1] = molecular target: T1, hiR2-FL-M534-T7 (deletion of M534) (human, UniProt Q6PJF5 1-856)
T1 construct: single amino acid deletion
T1 sequence: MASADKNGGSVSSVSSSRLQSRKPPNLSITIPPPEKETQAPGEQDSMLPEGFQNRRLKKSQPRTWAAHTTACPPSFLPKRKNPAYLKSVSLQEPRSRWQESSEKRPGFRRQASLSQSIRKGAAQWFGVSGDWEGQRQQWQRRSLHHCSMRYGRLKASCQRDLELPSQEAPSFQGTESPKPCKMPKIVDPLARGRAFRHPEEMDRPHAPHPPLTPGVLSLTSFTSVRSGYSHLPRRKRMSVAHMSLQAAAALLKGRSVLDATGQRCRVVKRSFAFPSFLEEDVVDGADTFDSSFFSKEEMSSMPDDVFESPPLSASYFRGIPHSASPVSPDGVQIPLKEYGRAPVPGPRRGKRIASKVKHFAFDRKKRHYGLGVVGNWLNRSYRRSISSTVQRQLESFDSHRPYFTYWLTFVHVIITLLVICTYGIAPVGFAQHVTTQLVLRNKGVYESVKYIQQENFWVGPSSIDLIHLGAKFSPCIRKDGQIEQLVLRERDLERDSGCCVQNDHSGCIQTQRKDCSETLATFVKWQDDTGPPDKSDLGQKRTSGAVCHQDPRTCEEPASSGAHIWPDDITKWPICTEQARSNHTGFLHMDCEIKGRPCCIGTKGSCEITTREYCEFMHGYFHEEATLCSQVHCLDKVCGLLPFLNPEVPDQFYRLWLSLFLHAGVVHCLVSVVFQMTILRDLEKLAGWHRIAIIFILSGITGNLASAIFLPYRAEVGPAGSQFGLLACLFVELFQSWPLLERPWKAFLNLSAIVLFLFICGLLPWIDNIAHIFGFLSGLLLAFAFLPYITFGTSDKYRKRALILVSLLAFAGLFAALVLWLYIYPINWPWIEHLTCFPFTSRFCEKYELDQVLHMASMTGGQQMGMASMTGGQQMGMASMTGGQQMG

[2] = molecular target: T2, hiR2-FL-D535-T7 (deletion of D535) (human, UniProt Q6PJF5 1-856)
T2 construct: single amino acid deletion
T2 sequence: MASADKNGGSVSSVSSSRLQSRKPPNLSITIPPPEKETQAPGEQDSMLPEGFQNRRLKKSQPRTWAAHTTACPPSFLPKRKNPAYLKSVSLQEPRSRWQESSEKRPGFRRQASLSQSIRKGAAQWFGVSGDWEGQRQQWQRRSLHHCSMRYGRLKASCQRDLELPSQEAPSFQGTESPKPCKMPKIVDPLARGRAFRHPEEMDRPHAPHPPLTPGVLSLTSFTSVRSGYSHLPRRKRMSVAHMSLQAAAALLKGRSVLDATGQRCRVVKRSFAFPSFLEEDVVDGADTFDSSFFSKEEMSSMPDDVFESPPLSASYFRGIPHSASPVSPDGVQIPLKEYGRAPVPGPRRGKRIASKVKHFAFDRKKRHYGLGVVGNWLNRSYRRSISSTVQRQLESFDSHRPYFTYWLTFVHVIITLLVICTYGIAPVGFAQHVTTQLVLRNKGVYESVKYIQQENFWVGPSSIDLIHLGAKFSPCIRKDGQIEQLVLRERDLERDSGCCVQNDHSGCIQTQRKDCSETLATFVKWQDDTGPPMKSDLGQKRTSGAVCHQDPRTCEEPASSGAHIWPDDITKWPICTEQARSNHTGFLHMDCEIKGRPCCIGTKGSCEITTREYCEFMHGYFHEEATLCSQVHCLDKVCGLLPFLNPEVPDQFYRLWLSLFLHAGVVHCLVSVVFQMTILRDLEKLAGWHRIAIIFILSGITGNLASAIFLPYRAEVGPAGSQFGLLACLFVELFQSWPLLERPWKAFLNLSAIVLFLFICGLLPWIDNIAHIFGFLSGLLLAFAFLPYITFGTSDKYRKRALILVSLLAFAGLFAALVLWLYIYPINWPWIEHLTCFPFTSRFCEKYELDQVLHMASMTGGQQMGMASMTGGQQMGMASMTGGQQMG

[3] = molecular target: T3, hiR2-FL-K536-T7 (deletion of K536) (human, UniProt Q6PJF5 1-856)
T3 construct: single amino acid deletion
T3 sequence: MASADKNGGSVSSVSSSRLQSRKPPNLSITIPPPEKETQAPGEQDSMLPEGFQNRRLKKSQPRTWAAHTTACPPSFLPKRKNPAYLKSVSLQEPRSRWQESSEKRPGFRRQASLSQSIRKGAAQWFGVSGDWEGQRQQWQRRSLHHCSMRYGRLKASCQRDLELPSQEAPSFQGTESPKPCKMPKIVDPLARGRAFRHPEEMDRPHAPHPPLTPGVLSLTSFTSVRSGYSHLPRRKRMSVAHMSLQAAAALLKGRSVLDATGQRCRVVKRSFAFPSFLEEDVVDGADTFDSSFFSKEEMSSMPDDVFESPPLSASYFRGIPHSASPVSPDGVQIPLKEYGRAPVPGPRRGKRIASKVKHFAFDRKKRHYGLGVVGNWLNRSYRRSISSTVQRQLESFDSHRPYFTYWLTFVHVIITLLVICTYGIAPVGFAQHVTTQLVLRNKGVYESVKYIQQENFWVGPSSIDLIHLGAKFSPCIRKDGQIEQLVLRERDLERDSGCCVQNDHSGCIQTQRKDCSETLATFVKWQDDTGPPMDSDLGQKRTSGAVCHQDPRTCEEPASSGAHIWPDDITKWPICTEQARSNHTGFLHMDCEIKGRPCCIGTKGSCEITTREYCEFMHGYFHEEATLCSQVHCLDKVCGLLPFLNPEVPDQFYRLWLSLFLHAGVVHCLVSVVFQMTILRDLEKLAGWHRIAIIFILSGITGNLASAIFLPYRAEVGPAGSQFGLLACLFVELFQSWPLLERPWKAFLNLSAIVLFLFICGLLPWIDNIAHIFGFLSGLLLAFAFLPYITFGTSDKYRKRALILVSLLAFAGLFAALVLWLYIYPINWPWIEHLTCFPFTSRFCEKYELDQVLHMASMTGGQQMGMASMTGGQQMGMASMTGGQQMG

Measured: binding result

B1: antibody 5 (antibody, V domains shown)
VH: QVTLKESGPGILQPSQTLSLTCSFSGFSLSTFGMGVGWIRQPSGKGLEWLAHIWWDDEKYYNSALKSRLTISKATSKNQAFLKIANVDTADTATYYCARISNYGSNYWYFNVWGTGTTVTVSS
VL: QVVLTQSPALMSASPGEKVTMTCSAGSSVSCMYWYQQKPGSSPRVLIYDTSNLASGVPARFTGSGSGTSYSLTISRMEAEDAASYYCQQWNSYPLTFGAGTKLELK
notes: mouse IgG, kappa light chain; also called clone #5; purified antibody 5
no binding (tested: 3 µg/ml): all assays above

B2: antibody 42 (antibody, V domains shown)
VH: QVTLKESGPGILQPSQTLSLTCSLSGFSLSTFGRGVGWIRQPSGKGLEWLAHIWWDDEKYYNPALKSRLTISKDTSKNQVFLRIANVDTADTATYYCARIQNYGSNYWYFDVWGTGTTVTVSS
VL: LIVLTQSPAIMSASPGEKVTMTCGATSRISYMFWYQQKPGSSPRVLIYDTSNLASGVPVRFSGSGSGTSYSLTISRVEAEDVATYYCQQWNSYPLTFGAGTKLELK
notes: mouse IgG, kappa light chain; also called clone #42; purified antibody 42
no binding (tested: 3 µg/ml): all assays above

B3: antibody 44 (antibody, V domains shown)
VH: QVTLKESGPGILQPSQTLSLTCSFSGFSLSTFGMGVGWIRQPSEKGLEWLAHIWWDDDKYYNPALKSRLTISKDTSKNQIFLKITNVDTAETATYYCSRIGNYGSNYWYFDVWGTGTTVTVSS
VL: QIVLTQSPAVMSASPGEKVTMTCTASSSVYYMYWYQQTPGSSPRLLIYDTSNLASGVPVRFSGSGSGTSYSLTISRMEAEDAATYYCQQWNTYPLTFGAGTKLELK
notes: mouse IgG, kappa light chain; also called clone #44; purified antibody 44
no binding (tested: 3 µg/ml): all assays above

B4: antibody 43 (antibody, V domains shown)
VH: QVALKESGPGILQPSQTLSLTCSFSGFSLSTFGMGVGWIRQSSGKGLEWLANIWWDDDKYYNPALKSRLTISKDASKNQAFLKIANVDTADTATYYCARIGNYGSNYWYFDVWGTGTTVTVSS
VL: QIVLTQSPAIMSASPGERVTMTCSANSRISYMYWYQQKPGSSPRLLIYDTSNLASGVPVRFSGSGSGTSYSLTISRMEAEDAATYNCQQWSSYPLTFGAGTKLELK
notes: mouse IgG, kappa light chain; also called clone #43; purified antibody 43
no binding (tested: 3 µg/ml): all assays above

B5: antibody 22 (antibody, V domains shown)
VH: QVTLKESGPGILQPSQTLSLTCSFSGFSLSTFGMGVGWIRQPSGKGLEWLAHIWWDDEKYYNSALKSRLTISKATSKNQVFLKIANVDTADTATYYCARISNYGSNYWYFNVWGTGTTVTVSS
VL: QVVLTQSPALMSASPGEKVTMTCSAGSSVSYMYWYQQKPGSSPRVLIYDTSNLASGVPARFTGSGSGTSYSLTISRMEAEDAATYYCQQWNSYPLTFGAGTKLELK
notes: mouse IgG, kappa light chain; also called clone #22; purified antibody 22
no binding (tested: 3 µg/ml): all assays above

B6: antibody 34 (antibody, V domains shown)
VH: QVTLKESGPGILQPSQTLSLTCSFSGFSLSTFSLGVGWIRQSSGKGLEWLAHIWWDDEKYYNPALKSRLTISKDTSKNQVFLKIANVDAADTATYYCARAYYSKSYYALDYWGQGTSVTVSS
VL: DIQMTQSPSSLSASLGERVSLTCRASQEISGYLSWLQQKPDGTIKRLIYAASTLDSGVPKRFSGSRSGSDYSLAISSLESEDFADYYCLQYANFPFTFGSGTKLEIK
notes: mouse IgG, kappa light chain; also called clone #34; purified antibody 34
no binding (tested: 3 µg/ml): all assays above

B7: antibody 16 (antibody, V domains shown)
VH: QVTLKESGPGILQPSQTLSLTCSFSGFSLSTFALGVGWIRQPSGRGLEWLAHIWWDDDKYYNPALKSRLTISKDTSKNHVFLKIANVDTADTATYYCARITTYYYGMDYWGQGTSVTVSS
VL: DIVLSQSPATLSVTPGDSVSLFCRASQSIGNHLHWYQQESHASPRLLIKYASQSISGIPSRFSGSGSGTDFTLSINSVETEDFGMYFCQQSYNWPLTFGAGTKLELK
notes: mouse IgG, kappa light chain; also called clone #16; purified antibody 16
no binding (tested: 3 µg/ml): all assays above

B8: antibody 3 (antibody, V domains shown)
VH: QVTLKESGPGILQPSQTLSLTCSFSGFSLTTFAMGIGWVRQPSGKGLEWLAHIWWDGEKYNNPVLKSRLTISKDTSKNQVFLRIANVDTPDTATYYCARISSIYYIIDNWGQGTSVTVSS
VL: DIVLTQSPATLSVTPGHSVSLSCRASQSISNNLHWYQKKSHESPRLLIKYVSQSISGIPSRFSGSGSGTDFTLSINSVETEDFGMYFCQQSYNWPLTFGAGTKLELK
notes: mouse IgG, kappa light chain; also called clone #3; purified antibody 3
no binding (tested: 3 µg/ml): all assays above
